Data reported in publication PMC8338941, “Puf6 primes 60S pre-ribosome nuclear export at low temperature”.

Columns and labels:
Puf6-PUM [1] = molecular target: T1, Puf6-PUM (Saccharomyces cerevisiae, UniProt Q04373 161-656); test: fluorescence anisotropy; 27 C; buffer promoting tertiary contact; Anisotropy: 2.5 nM Cy5-RNA, 0.16 nM-20 uM protein, 27 C (stated for H68), buffer composition not in the material; FRET: 20 mM HEPES pH 7.4, 100 mM K+ (116 mM KCl in the supplement), 0-100 mM Mg2+; conditions: protein: recombinant; (pET47-Puf6 (161-656)); label: Cy5 (sCy5); hairpin with GAAA tetraloop
Puf6-PUM [2] = molecular target: T1, Puf6-PUM; test: fluorescence anisotropy; buffer promoting tertiary contact; Anisotropy: 2.5 nM Cy5-RNA, 0.16 nM-20 uM protein, 27 C (stated for H68), buffer composition not in the material; FRET: 20 mM HEPES pH 7.4, 100 mM K+ (116 mM KCl in the supplement), 0-100 mM Mg2+; conditions: protein: recombinant; (pET47-Puf6 (161-656)); label: Cy5 (sCy5; sCy3 in the FRET construct); three hairpins, H22-H88 kissing loop, GAAA tetraloop docking

T1 sequence (Q04373 161-656): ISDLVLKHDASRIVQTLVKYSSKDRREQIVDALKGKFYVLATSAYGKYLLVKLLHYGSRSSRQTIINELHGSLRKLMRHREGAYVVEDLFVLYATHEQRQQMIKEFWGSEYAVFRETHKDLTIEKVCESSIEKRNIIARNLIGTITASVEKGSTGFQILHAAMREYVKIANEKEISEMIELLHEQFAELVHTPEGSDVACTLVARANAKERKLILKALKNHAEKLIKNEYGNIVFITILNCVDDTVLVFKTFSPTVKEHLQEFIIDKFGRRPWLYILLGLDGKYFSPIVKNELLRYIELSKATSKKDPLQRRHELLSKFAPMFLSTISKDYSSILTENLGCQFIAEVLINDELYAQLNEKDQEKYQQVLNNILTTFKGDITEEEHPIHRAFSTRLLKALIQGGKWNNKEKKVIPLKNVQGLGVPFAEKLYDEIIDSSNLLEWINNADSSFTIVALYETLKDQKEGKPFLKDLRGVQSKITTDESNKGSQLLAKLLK

## UGAAGAAAUUCA (structured_RNA) [H68 RNA]
Puf6-PUM [1]
  Kd: ~10 µM

B1: KL-TLGAAA (H68-H88-H22 RNA), Cy5 (structured_RNA)
RNA: UGAAGAAAUUCAAAAAAAAAGCUCGGAAUUUGAGCAAAAAAAAAAAACGGUGGUAAAUUCCAUCG
Puf6-PUM [2]
  Kd: ~125 nM
